From US12565680B2, “Cancer neoantigens and their utilities in cancer vaccines and TCR-based cancer immunotherapy” (THE METHODIST HOSPITAL SYSTEM, priority 2018, dated 2026)

Experiments:
135TIL = assay: IFN-γ ELISA with bulk 135TIL (IVT-RNA electroporated 135EBV-B cells; peptide titration and truncation); assay type: cell-based, human; settings: serially diluted peptides
Method: Due to low transfection efficiency of EBV-B cells, in vitro transcribed (IVT) RNA of 24 TMGs were generated and then electroporated them into 135EBV-B cells, followed by adding 135TIL cells for antigen recognition based on cytokine release assay.
96-well tissue culture plates were coated with phosphate-buffered saline (PBS, GenDEPOT) containing 50 μg/ml poly-L-lysine (Millipore Sigma) at 37° C. 10 min later, the plates were rinsed twice with PBS. Tumor cells or 293-APCs were seeded at 5×10^4/well in the 96-well plate and cultured at 37° C., 5% CO2 for at least 4 h. For plasmid transfection, 250 ng of plasmid DNA were transfected into 293-APCs per well with 0.5 μl of Lipofectamine 2000 (Thermo Fisher Scientific) according to the manufacturer's instructions and incubated at 37° C., in 5% CO2 overnight. For peptide presentation, synthesized peptides (GeneScript) were added to each well at different final concentrations from 10^2 to 10^−4 μM and incubated at 37° C., 5% CO2. The cells transfected with plasmids or pulsed with peptides were washed with TCM twice, and then cocultured with T cells (1×10^5/well). […]
96-well microplate (Greiner Bio-one) was coated with 50 μl of PBS containing anti-human IFN-γ (Thermo Fisher Scientific, primary antibody, 1 μg/ml) per well and incubated at 4° C. overnight. […] The plate was read at OD450 nm. The concentration of IFN-γ was calculated by standard reading. […]

T-cell clones of 135TIL = assay: IFN-γ ELISA with tumor-reactive T-cell clones of 135TIL; assay type: cell-based, human; settings: peptide titration; 135-1C1 (ADIPOR2), 135-1E1 (LAGE1b)
From the text: Thus, immunogenic antigens can be generated from various sources or mechanisms [such as alternative ORFs, noncoding regions (3′ and 5′ UTRs, introns, noncoding RNA)]. […] All other tumor-reactive CD4^+ T-cell clones and CD8^+ T-cell clones recognized the mutation-derived neoantigens. […] To identify these two antigens recognized by these two CD4^+ T-cell clones, an Ii-fusion cDNA library derived from 135 mel tumor cells was constructed using experimental procedures. The Ii-fusion cDNA library pools (approximately 100 cDNA clones per pool) were transfected into 293IMDR3/DP4 or 293IMDR4/DP4 cells, followed by co-culturing with CD4^+ T-cell clones (135-1C1 or 135-1E1). After 2×10^5 cDNA clones, positive cDNA library pools that stimulate two T-cell clones, respectively, were identified based on IFN-γ release by ELISA (FIG. 6B). The positive pools were then transformed into Stbl3™ Escherichia coli, and single bacteria colonies were picked for plasmid DNA isolation. […] The 135-1E1 T cell-reactive cDNA clones encoded the product translated from an alternative reading frame of CTAG2 (LAGE1b) (FIG. 6C and FIG. 7A). […]
T-cell cloning and expansion were performed. […] On day 14, T-cell clones were harvested, counted, tested for tumor reactivity. […]

B1: … MEGAPAGPGGRTAACLSCTSRCLSRRPWKRSWSAGSCPGMPHRSPDQGRF (peptide)
chain: EALAFLMAQGAMLAAQERRVPRAAEVPGAQGQQGPRGREEAPRGVRMAVPLLRRMEGAPAGPGGRTAACLSCTSRCLSRRPWKRSWSAGSCPGMPHRSPDQGRF
notes: 109 aa peptide from frame-shifted reading frame (ORF2) of CTAG2 (LAGE1b)
- recognition of titrated peptides by 135TIL (IFN-γ ELISA) (135TIL): little or no activity
- recognition of antigen peptides by specific T-cell clones (T-cell clones of 135TIL): strongly recognized
